The record followed here is patent US20200223885A1 (TOSOH, published 2020).

Experiment [1] deals with T1, monoclonal antibody (RITUXAN, manufactured by Zenyaku Kogyo Co., Ltd.).
T1 construct: That tie rests on the trade name; also called rituximab
As to the kind of experiment: affinity chromatography on the FcR9_F-immobilized gel column; equilibration 20 mM acetate, 50 mM NaCl, pH 5.0; elution by pH gradient to 10 mM glycine-HCl pH 3.0; 0.6 mL/min; A280. The method, then: (4) Five microliters of a monoclonal antibody (RITUXAN, manufactured by Zenyaku Kogyo Co., Ltd.), which was diluted with phosphate buffered saline (PBS) (pH 7.4) to yield a concentration of 1.0 mg/mL, was added at a flow rate of 0.6 mL/min.
(5) Washing was performed with the equilibration buffer for 2 minutes while the flow rate was maintained at 0.6 mL/min. Subsequently, a monoclonal antibody adsorbed was eluted with a pH gradient of 10 mM glycine-HCl buffer (pH 3.0) (i.e., a gradient in which 10 mM glycine-HCl buffer (pH 3.0) accounts for 100% in 28 minutes).

Experiment [2] concerns the target T2, IgG1 (manufactured by Sigma-Aldrich).
T2 construct: Analyte in the SPR assay, diluted in HBS-EP; also called IgG1 antibody
As to the kind of experiment: SPR (Biacore T100), Fc-binding protein amine-coupled to CM5, IgG1 as analyte. On the procedure: (7) IgG1-binding ability of each Fc-binding protein collected as the elution fraction in (6) was evaluated using the surface plasmon resonance method. Upon measurement of the binding ability using the surface plasmon resonance method, Biacore T100 (manufactured by GE Healthcare) was used as a measurement system, Sensor Chip CM5 (manufactured by GE Healthcare) was used as a sensor chip, and Biacore T100 Evaluation Software (manufactured by GE Healthcare) was used as analysis software.
(8) A solution prepared by diluting IgG1 (manufactured by Sigma-Aldrich) with HBS-EP (manufactured by GE Healthcare) was supplied to a sensor chip on which each Fc-binding protein was separately immobilized using an Amine Coupling Kit (manufactured by GE Healthcare), thereby obtaining a sensorgram. Curve fitting was performed based on the sensorgram so as to calculate IgG1-binding ability.
A general note: In SPR one partner is held on a chip, and binding of the other changes the refractive index at the surface.

T1 sequence (heavy, as listed by the source, chain 1 of 2): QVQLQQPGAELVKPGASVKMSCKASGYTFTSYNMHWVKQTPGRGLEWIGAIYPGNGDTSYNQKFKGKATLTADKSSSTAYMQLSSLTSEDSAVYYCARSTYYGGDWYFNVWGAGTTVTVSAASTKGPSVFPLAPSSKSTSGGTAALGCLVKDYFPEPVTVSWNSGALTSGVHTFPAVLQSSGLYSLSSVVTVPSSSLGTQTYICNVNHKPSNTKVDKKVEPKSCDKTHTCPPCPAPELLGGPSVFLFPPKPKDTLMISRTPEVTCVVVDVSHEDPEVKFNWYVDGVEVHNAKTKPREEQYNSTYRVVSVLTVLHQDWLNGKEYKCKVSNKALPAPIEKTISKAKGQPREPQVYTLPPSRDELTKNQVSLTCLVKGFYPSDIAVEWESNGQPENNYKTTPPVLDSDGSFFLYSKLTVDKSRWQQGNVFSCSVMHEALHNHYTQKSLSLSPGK
T1 sequence (light, as listed by the source, chain 2 of 2): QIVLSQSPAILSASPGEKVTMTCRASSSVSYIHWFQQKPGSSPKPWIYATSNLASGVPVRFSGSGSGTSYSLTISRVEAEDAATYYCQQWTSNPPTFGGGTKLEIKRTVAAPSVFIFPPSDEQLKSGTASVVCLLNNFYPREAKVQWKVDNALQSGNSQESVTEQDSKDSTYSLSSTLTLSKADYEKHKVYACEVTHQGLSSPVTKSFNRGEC

B1: FcR9_F_Cys (FcR9_F with a cysteine tag added) (receptor)
chain: MGMRTEDLPKAEVILEPQWNRVLEKDSVTLKCRGAYSPEDNSTQWFHNESLISSQASSYLIDAATVDDSGEYRCQTSLSTLSDPVQLEVHIGWLLLQAPRWEFKEGDPIHLRCHSWKNTALHKVTYLQNGKGRKYFHHNSDFYIPKATLKDSGSYSCRGLFGSKNVSSETVNITITQGCRNDTCG
notes: also called FcR9_F-immobilized gel; FcR9_F column
In the case of B1, the binding result in experiment [1] was “binds”.

B2: Fc-binding protein FcR9 (human FcγRIIIa amino acid substitution product) (receptor)
chain: KIEEAMGMRTEDLPKAEVILEPQWNRVLEKDSVTLKCRGAYSPEDNSTQWFHNESLISSQASSYLIDAATVDDSGEYRCQTSLSTLSDPVQLEVHIGWLLLQAPRWEFKEGDPIHLRCHSWKNTALHKVTYLQNGKGRKYFHHNSDFYIPKATLKDSGSYSCRGLVGSKNVSSETVNITITQGGHHHHHH
The term Kd denotes the constant that tells how readily two partners part at equilibrium. A higher Kd goes with weaker binding. For orientation: koff means a measure of how fast the partners let go of each other. A low value points to a long-lived complex. The kon is the rate constant with which the complex forms. The low end stands for slow association, the high end for fast association. For B2, in experiment [2], the Kd was found to be 77.3 nM, the koff worked out at 0.0313 s⁻¹ and the kon is 405000 M⁻¹ s⁻¹.
